B1: HDV Ribozyme (parent)
chain: GGCCGGCAUGGUCCCAGCCUCCUCGCUGGCGCCGGCUGGGCAACAUUCCGAGGGGACCGUCCCCUCGGUAAUGGCGAAUGGGACCCA

Variants of: B1
Assay: self-cleavage, relative activity (ratio to wild type); higher = more cleavage; co-transcriptional

Variant | self-cleavage
GGCCGGCAUGGUCCCAGCCUCCUCGCUGGCGACGGCUGGGCAACAUUCCGAGGGGACCGUCCCCUCGGUAAUGGCGAAUGAGACCCA | 0.0779
GGGCGGCAUGGUCCCAGCCUCCUCGCUGGCGCCGGCUUGGCAACAUUCCGAGGGGACCGUCCCCUCGGUAAUGGCGAAUGGGACCCA | 0.166
GGCCGGCAUGGUCCCAGCCUCCUCGCUGGCGCCGGCUGGGCAACAUUCCGAGGGGACCGUCCCCUCGGUAAUGGCAAAUGGGGCCCA | 0.992
GGCCGGCAUGGUCCCAGCCUCCUCGCUGGCGCCGGCUGGGCAAUAUUCCGAGGGGACCGUCCCCUCGAUAAUGGCGAAUGGGACCCA | 0.681
GGCCGGCAUGGUCCCAGCCUCCUCGCUGGCGCCGUCUGGGCAACAUUCCGAGGGGACCGUCCCCUCGGUAAUGGCGAAUAGGACCCA | 0.101
GGCCGGCAUGGUCCCAGCCUCCUCGCUGGCGCCGGCUGGGCGACAUUCUGAGGGGACCGUCCCCUCGGUAAUGGCGAAUGGGACCCA | 0.489
GGCCGGCAUGGGCCCAGCCUCCUCGCUGGCGCCGGCUGGGCAACAUUCCGAGGGGAGCGUCCCCUCGGUAAUGGCGAAUGGGACCCA | 0.931
GGCCGGCAUGGUCCCAGCCUCCACGCUGGCGACGGCUGGGCAACAUUCCGAGGGGACCGUCCCCUCGGUAAUGGCGAAUGGGACCCA | 0.251
GGCCGGCAUGGUCCCAGCCUCCUCGCUGGCGCCGGCUUGGCAACAUUCCGAGGGGACCGUCCCGUCGGUAAUGGCGAAUGGGACCCA | 0.177
GGCCGGCAUGGUCCCAGCCUCUUCGCUGGCGCCGGCUGGGCAACAAUCCGAGGGGACCGUCCCCUCGGUAAUGGCGAAUGGGACCCA | 0.295
GGCCGGCAUGGUCCCAGCCUCCUCGCUGGCGCCGGCUGGGCAACAUUCCGGGGGGACCGUCCCCUCGGUAAUGGCUAAUGGGACCCA | 0.942
GGCCGGCAUGGUCCCAGCCUCCUCGCUGGCGCCGGCUGGACAACAUUCCGAGGGGACCGUCCCCUCGGUAAUGGCGAGUGGGACCCA | 0.795
GGCCGGCAUGGUCCCAGCCUCCUCGCUGGCGCCGGCUGGUCAACAUUCCGAGGGGACCGUCCCCUGGGUAAUGGCGAAUGGGACCCA | 0.582
GGCCGGCAUGGUCGCAGCCUCCUCGCUGGCGCCGGCUGGGCAACAUUCCGAGGGGACCGUCCCCUCGGUAAUGGCCAAUGGGACCCA | 0.731
GGCCGGCAUGGUCCCAGCCUCCUCGCUGGCGCCGGCUGGGCCACAUUCCGAGGGGACCGUCCCCUCGGUAAUGGCGAAUAGGACCCA | 0.234
GGCCGGCAUUGUCCCAGCCUCCUCGCAGGCGCCGGCUGGGCAACAUUCCGAGGGGACCGUCCCCUCGGUAAUGGCGAAUGGGACCCA | 0.642

Variant | self-cleavage
GGCGGGCAUGAUCCCAGCCUCCUCGCUGGCGCCGGCUGGGCAACAUUCCGAGGGGACCGUCCCCUCGGUAAUGGCGAAUGGGACCCA | 0.104
GGCCGGCAUGGUCCCAGCCUCCUCGCUGGCGCCGGCUGGGCAACAUUCCGAGGGUACCGUCCCCUCGGUAAUGGCGAAUGGGACACA | 1.09
GGCCGGCAUGGUCCCAGCCUCCUCGCUGGAGCCGGCUGGGCAACAUUCCGAGGGGACCGUCCCCUCGGUAAUGUCGAAUGGGACCCA | 0.223
GGCCGGCAGGGUCCCAGUCUCCUCGCUGGCGCCGGCUGGGCAACAUUCCGAGGGGACCGUCCCCUCGGUAAUGGCGAAUGGGACCCA | 0.504
GGCCGGCAUGGUCCCAGCCUCCUCGCUGGCGCCGGCUGGGCAACAUUCCGAGGGGACCGUGCCCUAGGUAAUGGCGAAUGGGACCCA | 0.674
GGCCGGCAUGGUCCCAGCCUCCUCGCUGGCGCCGGCUGGGCAACAUUCCGAGGUGACCGUCCCCUCGGUAACGGCGAAUGGGACCCA | 0.554
GGCCGGCAUGGUCCCAGCCUCCUCGCUGGCGCCGGCUGGGCAAUAUUCUGAGGGGACCGUCCCCUCGGUAAUGGCGAAUGGGACCCA | 0.96
GGCCGGCAUGGUCCCAGCCUCCUCGCUGACGCCGCCUGGGCAACAUUCCGAGGGGACCGUCCCCUCGGUAAUGGCGAAUGGGACCCA | 0.149
GGCCGGCAUGGUCCCAGCUUCCUCGCUGGCGCCGGCGGGGCAACAUUCCGAGGGGACCGUCCCCUCGGUAAUGGCGAAUGGGACCCA | 0.0755
GGCCGGCAUGGUCCCAGCCUCCUCGCUGGCGCCGGCUGGGCAACAUUCCGAGGGGACCGUCCCCUCGGUUAUGGCGAAUAGGACCCA | 0.445
GGCCGGCAUGGUCCCAGCCUCCUCACGGGCGCCGGCUGGGCAACAUUCCGAGGGGACCGUCCCCUCGGUAAUGGCGAAUGGGACCCA | 0.133
GGCCGGCAUGGUCCCGGCCUCCUCGCUGGCGCCGGCUGGGCAACAGUCCGAGGGGACCGUCCCCUCGGUAAUGGCGAAUGGGACCCA | 0.554
AGCCGGCAUGGUCCCAGCCUCCUCGCUGGCGCCGGCUGGGCAACAUUCCGAGGGGACCGUCCCCUCGGUAAUGGCGGAUGGGACCCA | 0.237
GGCCGGCAUGGUCCCAGCCUCCUCGCGGGCGCCGGCUGGGCAACAUUCCGAGGGGACCGUCCCCUCGGUAAUGGCGAAUGGGUCCCA | 0.791
GGCCGGCAUGGUCCCGGCCUCCUCGCUGGCGCCGGCUGGGCAACAUUCCGAGGGGACCGUCCCCUCGUUAAUGGCGAAUGGGACCCA | 1.01
GGCCGGCAUGCUCCCAGCCUCCUCGCUGGCGCCGGCUGGGCAACAUUCCGAGGGGACAGUCCCCUCGGUAAUGGCGAAUGGGACCCA | 0.378

From the RNAGym collection of RNA variant scans (doi:10.7554/elife.80360)
